The record followed here is article PMC6315854, “Cloning, Expression and Characterization of a Novel Cold-adapted β-galactosidase from the Deep-sea Bacterium Alteromonas sp. ML52” (Marine Drugs, 2018).

A word on the Km: it is the concentration of substrate that gives half-maximal velocity. A word on the Vmax: it is the top rate of the reaction or transport when substrate is in excess. What is called kcat is the maximal rate divided by the concentration of active sites. Broadly, the kcat/Km is the second-order rate constant that governs catalysis at low substrate concentration.

In this data set the test system is O=[N+]([O-])c1ccccc1O[C@@H]1O[C@H](CO)[C@H](O)[C@H](O)[C@H]1O. Kind of data set: purified protein. The settings on record: 35 °C, 50 mM sodium phosphate pH 8, ONPG 0.1–5 mM.

Consider “recombinant Gal (β-galactosidase) (Alteromonas sp.)”, for which the Km turned out to be 140 µM, the Vmax is 465 µmol/min/mg, the kcat was 3690 s⁻¹ and the kcat/Km came to 2.63e+07 M⁻¹ s⁻¹.
